This experiment deals with T1, His-tagged Proliferating Cell Nuclear Antigen (PCNA) (human, UniProt P12004 1-261).
T1 construct: human PCNA, cloned into the NdeI and XhoI sites of pET28a for expression with an N-terminal His-tag; Used for ITC and for the peptide pull-downs; also called His-tagged PCNA; His-tagged recombinant PCNA; source: E. coli, from pET28a, purified (Ni-NTA, Q-sepharose, Superdex S-200); not shown: His tag, N-terminal, kept
Description: ITC; 15 μM PCNA in the cell, peptides injected stepwise (20 injections of 2 μl), 25 °C, PBS with 1 mM β-mercaptoethanol, single set of independent binding sites model. To be noted: both partners purified. For orientation: Isothermal titration calorimetry measures the heat released or taken up as one component is titrated into another.

T1 sequence (P12004 whole entry): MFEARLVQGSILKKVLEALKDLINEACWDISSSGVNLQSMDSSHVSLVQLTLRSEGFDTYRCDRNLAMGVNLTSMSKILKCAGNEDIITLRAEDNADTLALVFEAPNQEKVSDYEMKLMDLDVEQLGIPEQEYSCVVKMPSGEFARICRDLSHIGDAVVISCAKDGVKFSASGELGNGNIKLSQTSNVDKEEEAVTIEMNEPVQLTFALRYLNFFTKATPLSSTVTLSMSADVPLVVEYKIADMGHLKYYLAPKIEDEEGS

What is called Kd is the constant that tells how readily two partners part at equilibrium. High values mean lower affinity, low ones higher affinity. As a reminder, the stoichiometry N is the number of molecules, sites or subunits per partner or assembly. Turning to EKEKQHDIRSFFVPQ [ZRANB3 PIP box synthetic peptide used for ITC], binding was characterised by a dissociation constant (Kd) of 4.8 µM and the “stoichiometry N” value came out at 1 peptide per PCNA monomer.

Consider SKHGSDITRFLVKK [ZRANB3 APIM motif synthetic peptide used for ITC], for which the affinity, expressed as Kd, was 9.24 µM and the “stoichiometry N” value amounted to 1 peptide per PCNA monomer.

(Values after publication PMC5481773, “Structural insights into the function of ZRANB3 in replication stress response” (Nature Communications, 2017).)
